Measurements published in doi:10.1101/2025.08.05.25330579.
Substitutions are numbered along the chain they refer to.

Columns and labels:
[1] = target: T1, RBM10 RRM2 R332C (UniProt P98175 300-384, R332C); assay: ITC and NMR
T1 sequence: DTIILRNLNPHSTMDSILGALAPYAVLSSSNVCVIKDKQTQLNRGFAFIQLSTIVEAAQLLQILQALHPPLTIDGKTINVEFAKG

[2] = target: T2, RBM10 RRM2 WT (UniProt P98175 300-384); assay: ITC
T2 sequence: T1 sequence with C33R

Binder: UUGUCUGCUCCC (ssRNA) [NUMB exon 12-derived 12mer RNA]
- binding signal [1]: > 20 fold reduced affinity vs WT
- binding result [2]: binds
